Reference: patent US20110002926A1 (MEDICAL RESEARCH COUNCIL, published 2011)

What was measured:
[1] = target: HCV E1E2 glycoproteins of genotype 1b (Con1) (Hepatitis C virus genotype 1b (Con1), UniProt Q9WMX2 384-746; Q9WMX2 192-383); assay: cell-based or functional assay
[2] = target: HCV E1E2 glycoproteins of genotype 2a (J6) (Hepatitis C virus genotype 2a (J6), UniProt P26660 384-750; P26660 192-383); assay: cell-based or functional assay
[3] = target: HCV E1E2 glycoproteins of genotype 2a JFH1 on HCVpp (Hepatitis C virus genotype 2a, UniProt Q99IB8 384-750; Q99IB8 192-383); assay: cell-based or functional assay
Sequence of HCV E1E2 glycoproteins of genotype 2a JFH1 on HCVpp (Q99IB8 384-750 limits assumed, chain 1 of 2): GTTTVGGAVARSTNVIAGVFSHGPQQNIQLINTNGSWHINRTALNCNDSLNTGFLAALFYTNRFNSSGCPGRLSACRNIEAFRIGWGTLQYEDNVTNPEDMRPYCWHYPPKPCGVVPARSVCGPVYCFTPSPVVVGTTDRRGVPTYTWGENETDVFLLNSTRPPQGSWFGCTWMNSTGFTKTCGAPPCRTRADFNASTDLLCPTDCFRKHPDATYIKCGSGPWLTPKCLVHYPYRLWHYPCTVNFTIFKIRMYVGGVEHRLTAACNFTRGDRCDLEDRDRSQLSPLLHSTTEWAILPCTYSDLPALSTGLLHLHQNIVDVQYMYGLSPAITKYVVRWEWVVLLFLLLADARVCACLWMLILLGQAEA
Sequence of HCV E1E2 glycoproteins of genotype 2a JFH1 on HCVpp (Q99IB8 192-383 limits assumed, chain 2 of 2): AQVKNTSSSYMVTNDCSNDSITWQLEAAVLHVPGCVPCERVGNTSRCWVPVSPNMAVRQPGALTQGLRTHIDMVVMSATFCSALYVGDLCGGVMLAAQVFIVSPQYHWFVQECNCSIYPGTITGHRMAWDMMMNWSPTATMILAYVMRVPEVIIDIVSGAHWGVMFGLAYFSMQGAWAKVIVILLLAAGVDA

[4] = target: HCV E1E2 glycoproteins of genotype 3a F4/2-35 on HCVpp (Hepatitis C virus genotype 3a); assay: cell-based or functional assay
[5] = target: HCV E1E2 glycoproteins of isolate 2A2.4 on HCVpp (Hepatitis C virus genotype 2); assay: cell-based or functional assay
[6] = target: HCV E1E2 glycoproteins of isolate 4.21.16 on HCVpp (Hepatitis C virus genotype 4); assay: cell-based or functional assay
[7] = target: HCV E1E2 glycoproteins of isolate 6.5.8 on HCVpp (Hepatitis C virus genotype 6); assay: cell-based or functional assay
[8] = target: HCV E1E2 glycoproteins of isolate 1A20.8 on HCVpp (Hepatitis C virus genotype 1); assay: cell-based or functional assay
[9] = target: HCV E1E2 glycoproteins of isolate 1B5.23 on HCVpp (Hepatitis C virus genotype 1); assay: cell-based or functional assay
[10] = target: HCV E1E2 glycoproteins of isolate 2B1.1 on HCVpp (Hepatitis C virus genotype 2); assay: cell-based or functional assay
[11] = target: HCV E1E2 glycoproteins of isolate 5.15.11 on HCVpp (Hepatitis C virus genotype 5); assay: cell-based or functional assay
[12] = target: T1, soluble HCV E2 (sE2661), HIS-tagged, baculovirus expressed (Hepatitis C virus (genotype )); assay: BIAcore SPR, antibody captured on anti-human Fc chip, sE2 1.56-50 nM injected, 1:1 Langmuir fit
T1 construct: extracellular domain; also called soluble E2

[13] = target: T2, HCV E2 as part of the E1E2 heterodimer expressed on the surface of 293T cells (Hepatitis C virus (genotype )); assay: Scatchard analysis, 125I-antibody competition with unlabeled antibody on E1E2-transfected 293T cells
T2 construct: whole, on cells; also called E1E2 Scatchard; cell surface expressed E2

Sequence of HCV E1E2 glycoproteins of genotype 1b (Con1) (Q9WMX2 384-746 limits assumed, chain 1 of 2): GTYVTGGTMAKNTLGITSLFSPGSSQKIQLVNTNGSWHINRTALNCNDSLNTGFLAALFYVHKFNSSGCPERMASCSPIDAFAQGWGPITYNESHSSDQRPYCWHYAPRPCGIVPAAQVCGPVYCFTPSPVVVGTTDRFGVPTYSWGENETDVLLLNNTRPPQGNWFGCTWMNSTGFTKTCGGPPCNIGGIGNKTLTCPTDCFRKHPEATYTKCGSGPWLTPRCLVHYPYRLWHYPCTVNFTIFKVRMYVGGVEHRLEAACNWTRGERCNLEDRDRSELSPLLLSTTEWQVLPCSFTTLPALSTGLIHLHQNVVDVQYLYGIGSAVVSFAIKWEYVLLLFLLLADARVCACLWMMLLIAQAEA
Sequence of HCV E1E2 glycoproteins of genotype 1b (Con1) (Q9WMX2 192-383 limits assumed, chain 2 of 2): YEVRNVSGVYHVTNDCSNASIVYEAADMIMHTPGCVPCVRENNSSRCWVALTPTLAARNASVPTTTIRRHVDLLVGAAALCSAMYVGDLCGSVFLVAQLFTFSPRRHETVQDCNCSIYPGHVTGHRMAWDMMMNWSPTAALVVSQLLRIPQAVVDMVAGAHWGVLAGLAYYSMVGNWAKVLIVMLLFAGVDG

B1: humanized AP33 antibody RH-C/RK2b (antibody, V domains shown)
VH: QVQLQESGPGLVKPSETLSLTCTVSGDSITSGYWNWIRQPPGRALEWMGYISYSGSTYYNLSLRSRITISRDTSKNQYSLRLSSVTAADTAMYYCALITTTTYAMDYWGQGTTVTVSS
VL: EIVLTQSPSSLSASVGDRVTITCRASESVDGYGNSFLHWFQQKPGKAPKLLIYLASNLNSGVPSRFSGSGSGTDFTLTISSLQPEDFATYYCQQNNVDPWTFGQGTKLEIK
notes: also called RH-C antibody
- EC50 of HCVpp entry into Huh-7.5 cells (luciferase) [1]: 0.511 µg/mL
- EC50 of HCVpp entry into Huh-7.5 cells (luciferase) [2]: 0.793 µg/mL
- neutralization of HCVcc infection of Huh-7.5 cells (RT-qPCR), fold against AP33 [2]: ≥ 4.7 fold
- IC50 of HCVpp infection of Huh-7 cells (luciferase) [3]: 0.64 µg/mL
- IC90 of HCVpp infection of Huh-7 cells (luciferase) [3]: 7 µg/mL
- IC50 of HCVpp infection of Huh-7 cells (luciferase) [4]: < 0.41 µg/mL
- IC90 of HCVpp infection of Huh-7 cells (luciferase) [4]: 2.15 µg/mL
- IC50 of HCVpp infection of Huh-7 cells (luciferase) [5]: 0.51 µg/mL
- IC90 of HCVpp infection of Huh-7 cells (luciferase) [5]: 6 µg/mL
- IC50 of HCVpp infection of Huh-7 cells (luciferase) [6]: < 0.41 µg/mL
- IC90 of HCVpp infection of Huh-7 cells (luciferase) [6]: 0.92 µg/mL
- IC50 of HCVpp infection of Huh-7 cells (luciferase) [7]: < 0.41 µg/mL
- IC90 of HCVpp infection of Huh-7 cells (luciferase) [7]: 1.8 µg/mL
- IC50 of HCVpp infection of Huh-7 cells (luciferase) [8]: 1.6 µg/mL
- IC90 of HCVpp infection of Huh-7 cells (luciferase) [8]: 15 µg/mL
- IC50 of HCVpp infection of Huh-7 cells (luciferase) [9]: 0.9 µg/mL
- IC90 of HCVpp infection of Huh-7 cells (luciferase) [9]: 8.3 µg/mL
- IC50 of HCVpp infection of Huh-7 cells (luciferase) [10]: 3 µg/mL
- IC90 of HCVpp infection of Huh-7 cells (luciferase) [10]: > 15 µg/mL
- IC50 of HCVpp infection of Huh-7 cells (luciferase) [11]: 0.053 µg/mL
- IC90 of HCVpp infection of Huh-7 cells (luciferase) [11]: 0.82 µg/mL
- Kd [12]: 3.8 nM
- Kd [13]: 5 nM
